Results: article PMC5548806

Tests used:
[1] = target: CU44 wild-type HA ectodomain (A/Thailand/CU44/2006), foldon removed by thrombin (influenza A virus H1N1 A/Thailand/CU44/2006); test: SEC; […] (pH 8.0), 100 mM NaCl, 0.5 ml/min; […]
[2] = target: CU44 HA ectodomain mutant R106E of HA2, foldon removed by thrombin (influenza A virus H1N1 A/Thailand/CU44/2006); test: SEC; […] (pH 8.0), 100 mM NaCl, 0.5 ml/min; […]
[3] = target: CU44 HA ectodomain double mutant F88E/V91W of HA2 fused to the foldon (before the foldon cleavage) (influenza A virus H1N1 A/Thailand/CU44/2006 | not stated); test: SEC; foldon present (pre-thrombin); Superdex 200 in 50 mM Tris (pH 8.0), 100 mM NaCl, 0.5 ml/min; Fig. 1C
[4] = target: CU44 HA ectodomain mutant R75L of HA2, foldon removed by thrombin (influenza A virus H1N1 A/Thailand/CU44/2006); test: SEC; […] (pH 8.0), 100 mM NaCl, 0.5 ml/min; […]
[5] = target: CU44 HA ectodomain mutant S199F of HA1, foldon removed by thrombin (influenza A virus H1N1 A/Thailand/CU44/2006); test: SEC; […] (pH 8.0), 100 mM NaCl, 0.5 ml/min; […]
[6] = target: CU44 HA ectodomain mutant G47E of HA2, foldon removed by thrombin (influenza A virus H1N1 A/Thailand/CU44/2006); test: SEC; […] (pH 8.0), 100 mM NaCl, 0.5 ml/min; […]
[7] = target: CU44 HA ectodomain mutant V91W of HA2 fused to the foldon (pre-thrombin) (influenza A virus H1N1 A/Thailand/CU44/2006 | not stated); test: SEC; foldon present (pre-thrombin); Superdex 200 in 50 mM Tris (pH 8.0), 100 mM NaCl, 0.5 ml/min; Fig. 1C
[8] = target: CU44 HA ectodomain mutant F88E of HA2 fused to the foldon (pre-thrombin) (influenza A virus H1N1 A/Thailand/CU44/2006 | not stated); test: as above

CU44 wild-type HA ectodomain (A/Thailand/CU44/2006), foldon removed by thrombin (domain or fragment)
stoichiometry N [1]: 3

CU44 HA ectodomain mutant R106E of HA2, foldon removed by thrombin (domain or fragment)
stoichiometry N [2]: 3

CU44 HA ectodomain double mutant F88E/V91W of HA2 fused to the foldon (before the foldon cleavage)
stoichiometry N [3]: 3

CU44 HA ectodomain mutant R75L of HA2, foldon removed by thrombin (domain or fragment)
stoichiometry N [4]: 3

CU44 HA ectodomain mutant S199F of HA1, foldon removed by thrombin (domain or fragment)
stoichiometry N [5]: 3

CU44 HA ectodomain mutant G47E of HA2, foldon removed by thrombin (domain or fragment)
stoichiometry N [6]: 3

CU44 HA ectodomain mutant V91W of HA2 fused to the foldon (pre-thrombin)
stoichiometry N [7]: 3

CU44 HA ectodomain mutant F88E of HA2 fused to the foldon (pre-thrombin)
stoichiometry N [8]: 3
